Biological target: Biotin carboxylase AccC (E. coli) (UniProt P24182)
Test: SEC

Biotin-carboxy carrier protein AccB (from UniProt P0ABD8 1-156) (natural protein)
stoichiometry N: 1

Source: publication PMC11160672
